Results taken from the RNAGym collection of RNA variant scans (doi:10.1073/pnas.2313332121).
This sample holds only a part of the variants without activity.

B1: TPR 5TU (parent)
chain: GGAUCUUCUCGAUCUAACAAAAAAGACAAAUCUGCCACAAAGCUUGAGAGCAUCUUCGGAUGCAGAGGCGGCAGCCUUCGGUGGCGCGAUAGCGCCAACGUUCUCAACUAUGACACGCAAAACGCGUGCUCCGUUGAAUGGAGUUUAUCAUG

Variants of: B1
Assay: polymerase ribozyme fitness, log enrichment relative to wild type (log ratio); higher = more active; in vitro selection for triplet polymerase activity
How it was run: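 Fitness is a logarithmic measure of how a genotype enriched relative to the wild type, with replicate averages weighted by inverse variance. The logarithm uses base 2, and enrichment came from Illumina sequencing of input and output libraries. Those libraries were PCR-built, transcribed mutants of each subunit of a heterodimeric triplet polymerase ribozyme, passed through one triplicate in vitro selection round that included frozen incubation at −7 °C, gel excision of extended constructs and streptavidin-bead capture. Genotypes were kept only if they had ≥10 input reads and ≥1 read per output.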

Variant	polymerase ribozyme fitness (log ratio)
GGAUCUUCUCGCUCUAACAAAAAAGACAAAUCUGCCACAAUGCUUGAGAGCAUCUUCGGAUGCAGAGGCGGCAGUCUUCGGUGGCGCGAUAGCGCCAACGUUCUCAACUAUGACACGCAAACCGUGUGCUCCGUUGAAUGGAGUUUAUCAUG [A12C A41U C75U A122C C125U]	-3.38
GGAUCUUCUCGAUCUAACAAAAAAGAAAAAUCUGCCACAAAGCUUGAGAGCAUCUUCGGAUACAGAGGCGGCAGCCUUCGGUGGCGGGAUCGCGCCAACGUUCUCAACUAUGACACGCAAAACGCGUGCUCCGUUGAAUGGAGUUUAUCAUG [C27A G62A C87G A91C]	≤ -4.2
GGAUCUUCUCGAUCUAACAAAAAAGACAAAUCUGCCACAAAGCUUGAGAGCAUCUUCGGAUGCAGAGGCGGUAGCCUUAGGUGGUGCGAUAGCGCCAACGUUCUCAACUAUGACACGCAAAACGCGUGCUCCGUUGAAUGGAGUUUAUCAUG [C72U C79A C85U]	≤ -4.2
GGAUCUUCUCGAUCUAACAAAAAAGACAAAUCUGCCACAAAGCUUGAGAGCAUCUUGGGAUGCAGAGGCGGCAGCCUUCGGUGGCGCGAUAGCGCCAACGUUCUCAACUAUGACACGCAAAACGCGUGGUCCGUUGAAUGGAGUUUAUCAUG [C57G C129G]	-2.74
GGAUCUUCUCGGUCUAACAAAAAAGACAAAUCUGCCACAAAGCUUGAGAGCAUCUUCGAAUGCAGCGGCGGCAGCCUUAGGUGGCGCGAUAGCGCCAACGUUCUCAAUUAUGACAAGCAAAACGCGUGCUCCGUUGAAUGGAGUUUAUCAUG [A12G G59A A66C C79A C108U C116A]	≤ -4.2
GGAUCUUCUCGAUCUAACAAAAAAGACAAAUCUGCCACAAAGCUUGAGAGCAUCUUCGGAUGCUGAGGCGGCAGUCUUCGGUGGUGCGAUAGCGCCAACGUUCUCAACUAUGACACGCAAAACGCGUGCUCCGUUCAAUGGAGUUUAUCAUG [A64U C75U C85U G136C]	≤ -4.2
GGAUCUUCUCCAUCUAACAAAAAAGACAAAUCUGCCACAAAGCUUGAGAGCAUCUUCGGAUGCAGAGGCGGCAGCCUUCGGUGGCGCGAUAGCGCCAACGUUCUCAACUAUGACACGCAUAACGCGUGCUCCGUUGAAUGGAGUUUAUCAUG [G11C A120U]	-2.55
GGAUCUUCUCGAUCUAACAAAAAAGACAAAACUGCCACAAAGCUUGAGAGCAUCUUCGGAUGCAGAGGCGGCAGCCUUCGGUGGCUCGAUAGCGCCAAUGUUCUCAACUAUGACACGCAAAACGCGUGCUCCGUUGAAUGGAGUUUAUCAUG [U31A G86U C99U]	-1.18
GGAUCUUCUCGAUCUAACAAAAAAGAAAAAUCUGCCACAAAGCUUGAGAGCAUCUUCGGAUGCAGAGGCGGCAGCCAUCGGUGGCGCGAUAGCACCAACGUUCUCAACUAUGAUACGCAAAACGCGUGCUCCGUUGAAUGGAGUUUAUCAUG [C27A U77A G94A C114U]	≤ -4.2
GGAUCUUCUCGAUCUAACCAAAAAGACAAAUCUGCCACAAAGCUUGAGAACAUCUUCGGAUGCAGAGGCGGCAGCCUUCGGUGGCGCGAUAGCGCCAACGUUCUCAACUAUGACACGCAAAACGCGUGCUCCGUUGAAUGGAGUUUAUCAUG [A19C G50A]	-1.01
GGAUCUUCUCGAUCUAACAAAAAAGACAAAUCUGUCACAAAGCUUGAGAGCAUCUUCGGAUGCAGAGGCGGCAGCCUUCGGUAGCGCGAUAGCGCCAACGUUCUCAACUAUGACAAGCAAAACGCGUGCUCCGUUGAAUGGAGUUUAUCAUG [C35U G83A C116A]	-1.03
GGAUCUUCUCGAUCUAACAAAAAAGACAAAUCUGCCACAAAGCUUGAGAGCAUCUUCGGAUGCAGAGGCGGCAGCCUUCGGUGGCGCGAUAGCGCCAUCGUUCUCAACUAUGACACGCAAAACGCGUGCUCCGUUGAAUGAAGUUUAUCAUG [A98U G141A]	-0.0351
GGAUCUUCUCGAUCUAACAAAAAAGACAAAUCUGCCACAAAGCUUGAGAGCAUCUUCGGAUGCAGAGGCGGCAGCCUUCGGUGGCGCGAUAGCGCUAACGUUCUCAACUGUGACACGCAAAACGCGUGCUCCGUUGAAUGGAGUUUAUCAUG [C96U A110G]	-3.55
GGAUCUUCUCGAUCUAACAAAAAAGACAAAUCUGCCACAAAGCUUGAGAGCAUCUUCGGAUGCAGAGGCGGCAGCCUUCGGUGGCGCGAUAGCGCCAACGUUCUCAACUAUGACACGCAACACGCGUGCUCCGUUGAAGAGAGGUUAUCAUG [A121C U139G G140A U144G]	-4.07
GGAUCUUCUCGAUCUAACAAAAAAGACAAAUCUGCCACAAAGCUUGAGAGCAUCAUCGGAUGCAGAGGCGGCAGCCUUCGGUGGCUCGAUAGCGCCAACGUUCUCAACUAUGACACGCAAAACGCGUGCUCCGUUGAAUGGAGUUUAUCAUG [U55A G86U]	-1.44
GGAUCUUCUCGAUCUAACAAAAAAGACAAAUCUGCCACAAAGCUUGAGAGCAUCAUCGGAUGAAGAGGCGGCAGCCUUCGGUGGCGCGAUAGCGCGAACGUUCUCAACUAUGACACGCAAAACGCGUGCUCCGUUGAAUGGAGUUUAUCAUG [U55A C63A C96G]	-2
GGAUCUUCUCGAGCUAACAAAAAAGACAAAUCUGCCACAAAGCUUGAGAGCAUUUUCGGAUGCAGAGGCGGCAGCCUUCGGUGUCGCGAUAGCGCCAACGUUCUCAACUAUGACACGCAAAACGCGUGCUCCGUUGAAUGGAGUUUAUCAUG [U13G C54U G84U]	-2.19
GGAUCUUCUCGAUCUAACAACAAACACAAAUCUGCCACAAAGCUUGAGAGCAACUUCGGAUGCAGAGGCGGCAACCUUCGGUGGCGGGAUAGCGCCAACGUUCUCAACUAUGACACGCAAAACGCGUGCUCCGUUGAAUGGAGUUUAUCAUG [A21C G25C U53A G74A C87G]	≤ -4.2
GGAUCAUCUCGAUCUAACAAAAACGACAAAUCUGCCACAUAGCUUGAGAGCUUCUUAGGAUGCAGAGGCGGCAGCCUUCGGUGGCGCGAUAGCGCCAUCGUUCUCAACUAUGACCCGCAAAACGCGUGCUCCGUUGAAUGGAGUUUAUCAUG [U6A A24C A40U A52U C57A A98U A115C]	≤ -4.2
